Assay results reported in patent US8722622B2, “FGF21 conjugates and anti-diabetic uses thereof” (COVX Technologies Ireland, Limited, priority 2010, dated 2014).

Test system: obese insulin resistant (pre-diabetic) cynomolgus macaques
Type: in vivo, Macaca fascicularis
Details: 0.3 mg/kg QD
Description: […] adult cynomolgus monkeys (Macaca fascicularis) were included in the study. The monkeys (13 male, 11 female) were stratified into four treatment groups of 6 individuals, based on sex, body weight, and basal glycemic and lipid indices measured in a baseline plasma sample collected 2 weeks prior to the start of dosing. Animals were maintained on a high fat diet. Animals were dosed for 4 weeks followed by a 4 week washout period.
Blood samples were collected weekly during the dosing and washout periods, with the exception that no samples were collected at week 3 of washout. After an overnight fast (16-18 h), monkeys were sedated with ketamine 10-15 mg/kg by intramuscular (IM) injection. Body weights were recorded and blood (5 mL) was collected via percutaneous femoral venipuncture into ethylenediaminetetraacetic acid (EDTA) treated Vacutainer tubes pretreated with ˜1.8 trypsin inhibitor units (TIU) Aprotinin (Sigma 0.6 TIU per mL whole blood). Tubes were immediately placed on ice. Plasma was prepared by centrifugation, with the resulting plasma aliquoted and frozen at −80° C.
Data were treated in the same way for each pharmacodynamic endpoint. The baseline value for each individual monkey was subtracted from each timepoint to give a value corresponding to change from baseline. Changes from baseline values were averaged for each timepoint in each treatment group and standard error of the mean (SEM) calculated. Results are reported as mean change from baseline±SEM for each treatment group over the timecourse of the study. […] As there was no vehicle control group for the FGF21ΔH treated animals, the raw data and not the change from baseline value was used to assess statistical significance. In this case a student's T-test (two sided, paired sample) was carried out vs. baseline. […]
Plasma fructosamine was measured via an enzymatic colorimetric method using the Ace Alera Clinical Chemistry Analyzer using a kit from Roche Diagnostics®(Mannheim, Germany) according to manufacturer's instructions. […] Significant reduction in plasma fructosamine levels over time indicates improved glycemic control. […]
TPC levels were measured using enzymatic methods on the Ace Alera analyzer. There was a significant decrease in TPC after 1 week of treatment in all treatment groups (FIG. 9H).
TG levels were measured using enzymatic methods on the Ace Alera analyzer.
Non-esterified free fatty acids (FFA) were measured using enzymatic methods on a Roche Cobas® C311 clinical chemistry analyzer using protocols and reagents from Wako® (Wako Diagnostics, Richmond, Va.) according to manufacturer's instructions.
HDL levels were measured using enzymatic methods on the Ace Alera analyzer. There was no significant change in HDL cholesterol over the treatment period in any of the treatment groups.
LDL levels were measured using enzymatic methods on the Ace Alera analyzer.
TOTK were measured using enzymatic methods on a Roche Cobas® C311 clinical chemistry analyzer using protocols and reagents from Wako®.
Adiponectin levels were determined using a Mercodia® ELISA kit.
C-reactive protein (CRP) was measured using an ELISA kit from ALPCO Diagnostics® (Salem, N.H.) according to manufacturer's instructions. […] Levels trended back to baseline during the washout phase.
Leptin was measured by Luminex® technology (Millipore® catalogue number HMH-34K) with protocols and reagents according to manufacturer's instructions.
Adipsin levels were measured using and R&D Systems® (Minneapolis Minn.) human complement factor D Quantikine kit (catalogue number DFD00) according to manufacturer's instructions. […] The levels trended back towards baseline during the washout phase.

B1: FGF21ΔH: FGF21 with H1 absent (ΔH1), L146, SEQ ID NO:2; control protein (protein, listed as Homo sapiens)
chain: PIPDSSPLLQFGGQVRQRYLYTDDAQQTEAHLEIREDGTVGGAADQSPESLLQLKALKPGVIQILGVKTSRFLCQRPDGALYGSLHFDPEACSFRELLLEDGYNVYQSEAHGLPLHLPGNKSPHRDPAPRGPARFLPLPGLPPAPLEPPGILAPQPPDVGSSDPLSMVGPSQGRSPSYAS
With B1 the “LDL cholesterol” value was “significant decrease in LDL cholesterol levels was only observed after 1 week of treatment”, the “non-esterified free fatty acids (FFA)” value was “significantly increased over the first 2 weeks of treatment” and the “plasma adiponectin” value was “trended upwards”. The “body weight” value (4 weeks, vs baseline) was “significant decrease in body weight”, the “plasma fructosamine” value (after 3 weeks) was “significantly reduced” and the “triglycerides (TG)” value (dosing period) was “significant decrease in TG”. For the same molecule, the “total ketone bodies (TOTK)” value (first 3 weeks of treatment) was “significantly increased”, the “plasma leptin” value (not significant) was “decreased” and the “plasma C-reactive protein (CRP)” value (significance only at 1 week washout) was “decreased”.
